Results published in PMC4240464 (The Febs Journal, 2013).

How the values were obtained:
Assay in all cases: cell-based or functional assay
[1] = target: T1, CCL24 (human, UniProt O00175 27-119)
T1 sequence: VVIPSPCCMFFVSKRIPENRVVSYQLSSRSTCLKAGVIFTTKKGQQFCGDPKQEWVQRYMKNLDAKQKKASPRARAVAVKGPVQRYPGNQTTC

[2] = target: T2, CCL3 (human, UniProt P10147 24-92)
T2 sequence: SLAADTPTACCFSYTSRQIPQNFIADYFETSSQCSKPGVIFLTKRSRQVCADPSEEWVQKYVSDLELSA

[3] = target: T3, CCL8 (human, UniProt P80075 24-99)
T3 sequence: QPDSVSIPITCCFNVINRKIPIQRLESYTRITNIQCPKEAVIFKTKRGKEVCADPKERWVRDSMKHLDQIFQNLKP

[4] = target: T4, CCL15 (human, UniProt Q16663)
T4 sequence: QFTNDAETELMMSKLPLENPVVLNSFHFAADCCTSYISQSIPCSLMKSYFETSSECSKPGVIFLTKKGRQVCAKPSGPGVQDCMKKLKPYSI

[5] = target: T5, CCL26 (human, UniProt Q9Y258 24-94)
T5 sequence: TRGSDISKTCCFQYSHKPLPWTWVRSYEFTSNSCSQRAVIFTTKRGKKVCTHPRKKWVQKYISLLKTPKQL

[6] = target: T6, CCL22 (human, UniProt O00626 25-93)
T6 sequence: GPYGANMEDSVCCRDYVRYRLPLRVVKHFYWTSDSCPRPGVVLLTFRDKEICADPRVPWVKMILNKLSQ

[7] = target: CCL11 (human, UniProt P51671 24-97)
[8] = target: T7, CCL17 (human, UniProt Q92583 24-94)
T7 sequence: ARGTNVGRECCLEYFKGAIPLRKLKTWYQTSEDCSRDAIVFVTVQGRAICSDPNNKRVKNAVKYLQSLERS

[9] = target: T8, CCL3L1 (human, UniProt P16619 24-93)
T8 sequence: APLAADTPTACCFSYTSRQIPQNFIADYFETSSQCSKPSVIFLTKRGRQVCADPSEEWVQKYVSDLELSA

[10] = target: T9, CCL23 (human, UniProt P55773)
T9 sequence: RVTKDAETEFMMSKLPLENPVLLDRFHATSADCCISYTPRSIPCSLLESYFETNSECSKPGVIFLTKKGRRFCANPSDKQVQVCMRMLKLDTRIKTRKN

[11] = target: CCL7 (human, UniProt P80098 24-99)
[12] = target: T10, CCL16 (human, UniProt O15467 24-120)
T10 sequence: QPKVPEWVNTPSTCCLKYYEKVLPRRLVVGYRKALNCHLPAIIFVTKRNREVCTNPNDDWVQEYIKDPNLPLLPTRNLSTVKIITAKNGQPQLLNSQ

[13] = target: T11, CCL5 (wild type) (human, UniProt P13501 24-91)
T11 sequence: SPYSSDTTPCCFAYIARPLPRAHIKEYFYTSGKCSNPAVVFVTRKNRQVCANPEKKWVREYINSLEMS

Chain of CCL11 (P51671 24-97): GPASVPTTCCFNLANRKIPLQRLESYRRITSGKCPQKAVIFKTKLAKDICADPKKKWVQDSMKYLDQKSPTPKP
Chain of CCL7 (P80098 24-99): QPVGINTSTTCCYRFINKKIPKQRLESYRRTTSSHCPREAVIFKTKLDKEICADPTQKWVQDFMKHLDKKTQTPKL

B1: Evasin-4 (untagged recombinant) (natural protein)
chain: EVPQMTSSSAPDLEEEDDYTAYAPLTCYFTNSTLGLLAPPNCSVLCNSTTTWFNETSPNNASCLLTVDFLTQDAILQENQPYNCSVGHCDNGTCAGPPRHAQCW
modifications: appears to be highly glycosylated (six putative N-glycosylation sites)
[1]
  IC50, inhibition of chemotaxis of L1.2/CCR3 cells to CCL24 (EC80 10 nM): 95 nM
[2]
  IC50, inhibition of chemotaxis of 300.19CCR1 cells to CCL3 (EC80 1 nM): 2 nM
  IC50, inhibition of chemotaxis of L1.2/CCR5 cells to CCL3 (EC80 40 nM): 4.4 nM
[3]
  IC50, inhibition of chemotaxis of L1.2/CCR3 cells to CCL8 (EC80 5 nM): 3.6 nM
  IC50, inhibition of chemotaxis of eosinophils to CCL8 (EC80 10 nM): 3.1 nM
[4]
  IC50, inhibition of chemotaxis of L1.2/CCR3 cells to CCL15 (EC80 100 nM): 88 nM
[5]
  IC50, inhibition of chemotaxis of L1.2/CCR3 cells to CCL26 (EC80 10 nM): 68 nM
  IC50, inhibition of chemotaxis of eosinophils to CCL26 (EC80 50 nM): 101 nM
[6]
  IC50, inhibition of chemotaxis of L1.2/CCR4 cells to CCL22 (EC80 1 nM): 38 nM
[7]
  IC50, inhibition of chemotaxis of L1.2/CCR3 cells to CCL11 (EC80 1 nM): 14 nM
  IC50, inhibition of chemotaxis of eosinophils to CCL11 (EC80 1 nM): 4.9 nM
[8]
  IC50, inhibition of chemotaxis of L1.2/CCR4 cells to CCL17 (EC80 1 nM): 69 nM
[9]
  IC50, inhibition of chemotaxis of L1.2/CCR5 cells to CCL3L1 (EC80 1 nM): 3.5 nM
[10]
  IC50, inhibition of chemotaxis of 300.19/CCR1 cells to CCL23 (EC80 10 nM): 2.2 nM
[11]
  IC50, inhibition of chemotaxis of eosinophils to CCL7 (EC80 10 nM): 5 nM
[12]
  IC50, inhibition of chemotaxis of 300.19/CCR1 cells to CCL16 (EC80 250 nM): 304 nM
[13]
  IC50, inhibition of chemotaxis of 300.19/CCR1 cells to CCL5 (EC80 1 nM): 2.2 nM
  IC50, inhibition of chemotaxis of L1.2/CCR5 cells to CCL5 (EC80 1 nM): 4.8 nM
  IC50, inhibition of chemotaxis of monocytes to CCL5 (EC80 10 nM): 1.5 nM
